Measured values as given in patent US20210198319A1, “CYTOTOXIC PEPTIDES AND CONJUGATES THEREOF” (AEBI LTD., priority 2017, published 2021).
No end group written: not given here.

Key:
[1] = target: human eukaryotic elongation factor 2 (eEF2) (Homo sapiens, UniProt P13639); assay: Cyclic peptide library tested for binding to eEF2; conditions: after optimization process
Description: Using the technique described in WO 2007/010525, a library of cyclic peptides was generated and tested for binding to human eukaryotic elongation factor 2 (eEF2).

[2] = test system: cells; assay: Toxicity to cells of library peptides; format: cell-based; conditions: cyclic peptide library, after optimization process

Substance: Cys-Ser-Ala-Arg-Trp-Gly-Pro-Ile-Met-Pro-Trp-Cys (CSARWGPIMPWC; also: cyclic, ring type not given here) [GW2]
- binding to eEF2 (rank among library peptides) [1]: most potent peptide
- toxicity to cells (rank among library peptides) [2]: most potent peptide
